Assay results from patent publication US20040053816A1 (COUNCIL OF SCIENTIFIC AND INDUSTRIAL RESEARCH, published 2004).

Molecular target: insulin receptor (IR) of carp adipocytes (carp Catla catla)
Assay: cell-based or functional assay

- glucose uptake by adipocyte: 2 fold
B1: Purified adipocyte insulin (Adplnsl) of the carp Catla catla (ligand)
chain 1: GIVEQCCHKPCSIFELQNYCN
chain 2: PGAPQHLCGSHLVDALYLVCGPTGFFYNPK
